{"source": "paper PMC4115230", "about": "“Lipid–Protein Nanodiscs Offer New Perspectives for Structural and Functional Studies of Water-Soluble Membrane-Active Peptides” (Acta Naturae, 2014)", "key": {"[1]": {"system": "LPN/POPC", "assay": "NMR titration binding isotherm with LPN/POPC nanodiscs", "conditions": "POPC, 1D 1H-NMR titration, 10 mM Tris-Ac, pH 7.0", "experimental": "(§1) The recombinant 44–243 fragment of the human apolipoprotein A1 with a N-terminal sequence of six His residues was used as an MSP protein. The purified MSP protein, obtained as described in [20], was mixed at a molar ratio of 1 : 75 with lipids in the presence of a detergent, sodium cholate (2 : 1 cholate/lipids molar ratio), and the mixture was incubated at 4 °C for 3 h. When using saturated lipids (DLPC, DLPG), the reaction temperature was kept not lower than 25 °C. Spontaneous LPN assembly was initiated by detergent sorption to the Bio-Beads™ resin (Bio-Rad, USA) for 1.5 h. Purification of the nanodiscs was performed on a Ni^2+ Sepharose 6 Fast Flow resin (GE Healthcare, USA) equilibrated with buffer A (20 mM Tris-HCl, 0.5 M NaCl, 1 mM NaN3, pH 8.0). After loading the reaction mixture, the resin was washed with a fivefold volume of buffer A. LPNs were eluted with buffer A containing 100 mM imidazole. The MSP concentration was determined spectrophotometrically by absorbance at λ = 280 nm. The LPN concentration was determined by assuming that each nanodisc contained two MSP molecules.\n(§2) NMR spectra were acquired at 40–45 °C on AVANCE -700 and AVANCE -III-800 spectrometers (Bruker, Germany) equipped with cryogenically cooled triple-resonance probes at the proton resonance frequencies of 700 and 800 MHz, respectively. […]"}, "[2]": {"system": "LPN/POPC/DOPG (3 : 1)", "assay": "NMR titration binding isotherm with LPN/POPC/DOPG (3 : 1) nanodiscs", "conditions": "10 mM Tris-Ac; for binding to LPNs: POPC/DOPG, 3 : 1, 1D 1H-NMR titration, pH 7.0", "experimental": "as §1\n(§3) NMR spectra were acquired at 40–45 °C on AVANCE -700 and AVANCE -III-800 spectrometers (Bruker, Germany) equipped with cryogenically cooled triple-resonance probes at the proton resonance frequencies of 700 and 800 MHz, respectively.\n(§4) To measure the isotherms of the toxins binding to LPNs and MSP molecules, the VSTx1 and NT II samples ([…], 10 mM Tris-Ac, pH 7.0) were titrated with solutions of nanodiscs (70 μM) of various lipid compositions or with a MSP solution (0.7 mM). The 1D 1H-NMR spectrum was acquired at each point. A data analysis was performed assuming that the intensity of the observed NMR signals of a peptide is proportional to its equilibrium concentration in solution ([P]free). The binding curves were fitted either to the partition equilibrium equation (1) or to the Langmuir isotherm equation (2), taking into account the dilution of the initial samples upon titration:\n(§5) where [LPN/lipid] is the LPN concentration (assuming that one nanodisc contains two MSP molecules) or the lipid concentration (assuming that one nanodisc contains 150 lipid molecules), [P]boundis the concentration of a peptide bound to LPN ([P]0 = [P]free+ [P]bound), Kpis the partition coefficient, n is the number of binding sites for a peptide on the nanodisc surface, and Knis the affinity constant of the peptide to the binding site on the nanodisc surface."}, "[3]": {"system": "muscle-type nicotinic acetylcholine receptor", "conditions": "blocks ligand binding sites with its central loop; ref [36]; cited from earlier work", "excerpt": "Neurotoxin II (NT II) is a cationic non-hydrophobic peptide which is stabilized by four disulfide bonds and has the so-called “three-loop” β-structure fold characteristic for snake toxins (Fig. 1). […] It blocks, with its central loop, the ligand binding sites located on the receptor extracellular domain [36]. Unlike VSTx1, NT II has no explicit membrane activity. At the same time, the ^1H,^15N-, and ^31P-NMR spectroscopy investigation of NT II in the environment of DOPC/ DOPS/cholesterol (3 : 1 : 1) ..."}, "[4]": {"system": "LPN/POPC/DOPS (4 : 1)", "assay": "NMR titration binding isotherm with LPN/POPC/DOPS (4 : 1) nanodiscs", "conditions": "for binding to LPNs: POPC/DOPS, 4 : 1, 1D 1H-NMR titration, pH 7.0", "experimental": "as §1, §3, §4, §5"}, "[5]": {"system": "LPN/POPC/DOPS (4 : 1)", "assay": "Topology of NT II on nanodisc membrane (combined NOE and PRE data)", "format": "binding", "conditions": "fast exchange on the NMR scale", "experimental": "(§6) The interaction of NT II with LPN was studied using a sample containing 45 μM ^2H,^15N-NT II, and 75 μM LPN/POPC/DOPS (4 : 1) (10 mM Tris-Ac, pH 7.0). To identify the peptide HN-groups making contacts with the nanodisc surface, the ^1H signal of choline group of the POPC lipid ((CH3)3N^+-, chemical shift is 3.2 ppm) was saturated at a frequency of 125 Hz for 0.1, 0.3, 0.5, 0.8, 1.0, 1.5, and 3.0 s using a relaxation delay of 3 s. […] To identify the peptide HN-groups making contacts with the hydrophobic region of the nanodisc membrane, the paramagnetic probe of 5-doxyl-stearic acid (5-DSA) was used. 5-DSA dissolved in a small amount of methanol was added to the sample containing NT II/LPN complexes to a final concentration of 10, 30, and 75 μM. […] The rates of the cross-correlation process between the dipole-dipole relaxation and relaxation arising from the chemical shift anisotropy of the ^15N nucleus (ηXY) were measured for the complexes of NT II with LPN/POPC/DOPS at 40 °C on an AVANCE -III-800 spectrometer, using amplitude modulated 2D ^1H,^15NTR OSY experiments. The rotational correlation time (τR) for the peptide HN-groups was calculated from the measured ηXY values."}, "[6]": {"system": "LPN/POPC/DOPS (4 : 1)", "assay": "Saturation of POPC choline signal (NOE magnetization transfer) in 2D 1H,15N-TROSY", "format": "binding", "conditions": "45 μM 2H,15N-NT II, 75 μM LPN/POPC/DOPS (4 : 1), 10 mM Tris-Ac, pH 7.0", "experimental": "as §6"}, "[7]": {"system": "MSP (44-243 fragment of human apolipoprotein A1)", "assay": "NMR titration binding isotherm with MSP", "conditions": "MSP without lipids; 1D 1H-NMR titration, 10 mM Tris-Ac, pH 7.0", "experimental": "as §1, §2"}, "[8]": {"system": "LPN/POPC/DOPS (4 : 1)", "assay": "Paramagnetic relaxation enhancement from 5-DSA in 2D 1H,15N-TROSY", "format": "binding", "conditions": "5-DSA 10, 30 and 75 μM; 45 μM 2H,15N-NT II, 75 μM LPN/POPC/DOPS (4 : 1), pH 7.0", "experimental": "as §6"}, "[9]": {"system": "LPNs", "assay": "Gel filtration analysis of LPNs after peptide addition (nanodisc integrity, particle size)", "format": "physicochemical", "conditions": "Superdex-200, 10 mM Tris-HCl, 0.1 M NaCl", "experimental": "was carried out on a Superdex-200 resin using a Tricorn 5/200 column (GE Healthcare, Sweden) in buffer (10 mM Tris-HCl, 0.1 M NaCl, 1 mM EDTA, 1 mM NaN3, pH 7.4). Thyroglobulin (669 kDa, Stokes radius RH = 8.5 nm), ferritin (440 kDa, RH = 6.1 nm), catalase (232 kDa, RH = 5.22 nm), aldolase (158 kDa, RH = 4.81 nm) BSA (67 kDa, RH = 3.55 nm), and ovalbumin (43 kDa, RH = 3.05 nm) were used as calibration proteins. The flow rate through the column was 0.3 ml/min. Detection was performed at 280 nm. The particle size was determined from the elution volume vs the lgRH calibration curve. All the particle size (diameter) values provided below correspond to twice RH values. ;"}, "[10]": {"system": "LPN/POPC/DOPS (4 : 1)", "assay": "15N cross-correlation relaxation rates (ηXY) of NT II in complex with LPN", "format": "physicochemical", "experimental": "as §3, §6"}}, "data": [{"molecule": "neurotoxin II (not fully specified; ends and bridges not checked; also: 2H,15N-labeled) LECHNQQSSQPPTTKTCSGETNCYKKWWSDHRGTIIERGCGCPKVKPGVNLNCCRTDRCNN", "values": [{"measurement": "binding to LPNs", "setting": "[1]", "result": "lack of detectable binding"}, {"measurement": "binding to LPNs", "setting": "[1]; listed as NTII", "result": "does not bind"}, {"measurement": "binding to LPNs", "setting": "[2]", "result": "low affinity"}, {"measurement": "binding to LPNs", "setting": "[2]; listed as NTII", "result": "comparatively low affinity"}, {"measurement": "Kp(LPN, MSP×2), partition coefficient", "setting": "[2]; partition equilibrium (eq. 1), LPN concentration as non-aqueous phase, pH 7.0, 40–45 °C, no added salt", "result": "0.32 ± 0.01 ×10^6·M^-1"}, {"measurement": "Kp(Lipids), partition coefficient", "setting": "[2]; partition equilibrium (eq. 1), lipid concentration as non-aqueous phase (150 lipids per nanodisc), pH 7.0, 40–45 °C, no added salt", "result": "2.13 ± 0.07 ×10^3·M^-1"}, {"measurement": "inhibition of muscle-type nicotinic acetylcholine receptor", "setting": "[3]", "result": "highly specific inhibitor"}, {"measurement": "selectivity for membranes containing different anionic lipids (phosphatidylserine and phosphatidylglycerol)", "setting": "[4]; LPN/POPC/DOPS (4 : 1) compared with LPN/POPC/DOPG (3 : 1)", "result": "lack of significant NT II selectivity"}, {"measurement": "binding to LPNs", "setting": "[4]; 10 mM Tris-Ac", "result": "low affinity"}, {"measurement": "binding to LPNs", "setting": "[4]; 10 mM Tris-Ac, listed as NTII", "result": "comparatively low affinity"}, {"measurement": "Kp(LPN, MSP×2), partition coefficient", "setting": "[4]; partition equilibrium (eq. 1), LPN concentration as non-aqueous phase, 10 mM Tris-Ac, pH 7.0, 40–45 °C, no added salt", "result": "0.16 ± 0.01 ×10^6·M^-1"}, {"measurement": "Kp(Lipids), partition coefficient", "setting": "[4]; partition equilibrium (eq. 1), lipid concentration as non-aqueous phase (150 lipids per nanodisc), 10 mM Tris-Ac, pH 7.0, 40–45 °C, no added salt", "result": "1.07±0.07 ×10^3·M^-1"}, {"measurement": "orientations on the nanodisc surface", "setting": "[5]", "result": "several (at least two) orientations"}, {"measurement": "orientations on the nanodisc surface", "setting": "[5]; listed as NTII", "result": "several orientations"}, {"measurement": "toxin regions with drop of cross-peak intensity on POPC choline saturation", "setting": "[6]", "result": "1) in the toxin “head”, near the putative binding site for phosphatidylserine, and 2) in the central (second) loop, at the level of Trp27, Trp28, and Ile35 residues"}, {"measurement": "interaction with MSP", "setting": "[7]", "result": "absence of nonspecific toxin interactions with the MSP protein"}, {"measurement": "residues with maximum attenuation of HN-signal intensities (PRE)", "setting": "[8]", "result": "Thr21 residue of the toxin “head” and for residues of the third and second loops"}, {"measurement": "nanodisc disruption", "setting": "[9]; 1 mM EDTA, pH 7.4, 280 nm", "result": "no disruption of nanodiscs"}, {"measurement": "diameter of unbound toxin", "setting": "[9]; pH 7.4, diameter = 2 RH", "result": "~ 2.6 nm"}, {"measurement": "ηXY, cross-correlation rates of 15N nuclear relaxation, range", "setting": "[10]; 2H,15N-NT II in complex with LPN/POPC/DOPS, 800 MHz, 40 °C", "result": "2.5 to 40", "unit": "Hz"}, {"measurement": "diameter of globular particle corresponding to mean τR", "setting": "[10]; calculated from mean τR", "result": "~ 5.4 nm"}, {"measurement": "mass of globular particle corresponding to mean τR", "setting": "[10]; calculated from mean τR", "result": "~ 34 kDa"}, {"measurement": "rotational correlation time τR, range", "setting": "[10]; calculated from ηXY, NT II in complex with LPN/POPC/DOPS, 40 °C", "result": "2 to 31", "unit": "ns"}, {"measurement": "rotational correlation time τR, mean", "setting": "[10]; calculated from ηXY, mean, NT II in complex with LPN/POPC/DOPS, 40 °C", "result": "~ 12.5 ns"}, {"measurement": "ηXY, cross-correlation rates of 15N nuclear relaxation, mean", "setting": "[10]; mean value, 2H,15N-NT II in complex with LPN/POPC/DOPS, 800 MHz, 40 °C", "result": "16.3 ± 9.2", "unit": "Hz"}]}]}
